{"source": "IntAct's records for PubMed 11494128", "parents": {"B1": {"name": "Ephrin type-B receptor 2 (Gallus gallus (Chicken)), P28693 (parent)", "chain": "MGPLWFCCLPLALLPLLAAVEETLMDSTTATAELGWMVHPPSGWEEVSGYDENMNTIRTYQVCNVFESSQNNWLRTKYIRRRGAHRIHVEMKFSVRDCSSIPNVPGSCKETFNLYYYESDFDSATKTFPNWMENPWMKVDTIAADESFSQVDLGGRVMKINTEVRSFGPVSKNGFYLAFQDYGGCMSLIAVRVFYRKCPRVIQNGAVFQETLSGAESTSLVAARGTCISNAEEVDVPIKLYCNGDGEWLVPIGRCMCRPGYESVENGTVCRGCPSGTFKASQGDEGCVHCPINSRTTSEGATNCVCRNGYYRADADPVDMPCTTIPSAPQAVISSVNETSLMLEWTPPRDSGGREDLVYNIICKSCGSGRGACTRCGDNVQFAPRQLGLTEPRIYISDLLAHTQYTFEIQAVNGVTDQSPFSPQFASVNITTNQAAPSAVSIMHQVSRTVDSITLSWSQPDQPNGVILDYELQYYEKNLSELNSTAVKSPTNTVTVQNLKAGTIYVFQVRARTVAGYGRYSGKMYFQTMTEAEYQTSVQEKLPLIIGSSAAGLVFLIAVVVIIIVCNRRRGFERADSEYTDKLQHYTSGHSTYRGPPPGLGVRLFVMTPGMKIYIDPFTYEDPNEAVREFAKEIDISCVKIEQVIGAGEFGEVCSGHLKLPGKREIFVAIKTLKSGYTEKQRRDFLSEASIMGQFDHPNVIHLEGVVTKSSPVMIITEFMENGSLDSFLRQNDGQFTVIQLVGMLRGIAAGMKYLADMNYVHRDLAARNILVNSNLVCKVSDFGLSRFLEDDTSDPTYTSALGGKIPIRWTAPEAIQYRKFTSASDVWSYGIVMWEVMSYGERPYWDMTNQDVINAIEQDYRLPPPMDCPNALHQLMLDCWQKDRNHRPKFGQIVNTLDKMIRNPNSLKAMAPLSSGVNLPLLDRTIPDYTSFNTVDEWLDAIKMSQYKESFASAGFTTFDIVSQMTVEDILRVGVTLAGHQKKILNSIQVMRAQMNQIQSVEV"}}}
{"variants_of": "B1", "conditions": "with abl1_mouse Abl1, P00520"}
{"variant": "Y614E;Y620E", "effect of a mutation on the interaction": "decreasing interaction strength"}
{"variants_of": "B1", "conditions": "with abl1_mouse Abl1, P00520", "remark": "another data set of the same source"}
{"variant": "Y614E;Y620E", "effect of a mutation on the interaction": "disrupting interaction strength"}
{"variant": "Y620E", "effect of a mutation on the interaction": "decreasing interaction strength"}
{"variant": "Y614E", "effect of a mutation on the interaction": "decreasing interaction strength"}
